Test results published in the supplement of paper PMC9170038.

System: MS2 coat protein
Test: apparent KD of MS2 coat protein; designed switch direction (-1 OFF switch, 1 ON switch): -1; higher = weaker reporter binding
Method in brief: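 SNAP-549-labelled MS2 coat protein was titrated, doubling from 0.7 or 1.5 nM to 3 µM, over designed RNA switches transcribed on Illumina chips by stalled E. coli RNA polymerase. Runs were done without input, with 200 uM small-molecule ligand, or with an oligonucleotide input. Apparent KD is the per-design median over clusters of curve-fitted normalised fluorescence.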

[1] = Eterna round: R95, input ligand: FMN 200 uM
[2] = Eterna round: R95, input ligand: microRNA oligo, concentration not stated
[3] = Eterna round: R95, input ligand: none
[4] = input ligand: microRNA oligo, concentration not stated

Sequence	apparent KD of MS2 coat protein [1] [nM]	apparent KD of MS2 coat protein [2] [nM]	apparent KD of MS2 coat protein [3] [nM]	apparent KD of MS2 coat protein (input ligand: FMN 200 uM) [nM]	apparent KD of MS2 coat protein [4] [nM]	apparent KD of MS2 coat protein (input ligand: none) [nM]
AGUAACCGUCACGAAAGUGAUGGUUACACAAGUAAUGAAACAUGAGGAUCACCCAUGUCCUCAUUUGCUCGUCUUAU [Sensor 3 - 39] (puzzle: Sensor v3, turn-off variant 2)	354	362	350	–	–	–
UUUGAAAAUGUAGGAUAUGGAAUAGGUAAGUAGCCAGAAGGACAUGAGGAUCACCCAUGUAAGAACAUAGGGAAAGAUAUGUUU [No clue what I'm doing] (Eterna round: R96, puzzle: Exclusion NG 1)	–	–	–	90.8	32.9	44.7
ACAAGCUUUUAGAUUUUCAACAUGAGGAUCACCCAUGUUCGUCUUAUGCUCGGGCUUGGGCGGUGUCCGGGUUUGGG [JL TOV1 3.78 sellena mod] (Eterna round: R97, puzzle: Sensor, turn-off variant 1)	–	–	–	37.1	–	39.2
GGGUGUCCAGUGAGGAUAUCCAACGCUAAGGCGCAGGAGAAGGCACAUGAGGAUCACCCAUGUAGCUGAAGAAA [Onerbegeso] (puzzle: Brourd's mod of Exclusion 4)	49.9	14.1	20	–	–	–
CUAGAUCUUCGGAUCUAGUACAUGAGGAUCACCCAUGUUACGAGUUGAUCCUCAUACAAGCUUUUUGCUCGUCUUAU [Sensor v3 - Turn-off variant 1 - 25] (puzzle: Sensor v3, turn-off variant 1)	16.5	9.03	13.9	–	–	–
AGUAUGCGAGGAUAUACAUGAGGAUCACCCAUGUGAGAGAUAAAAGUGAGAAAGACAAGUAGAAGGCGCGUACA [JL Lego Mod 23] (Eterna round: R96, puzzle: Exclusion 3)	–	–	–	413	41.9	81.1
GGUUGGCGAGGAUAUACAUGAGGAUCACCCAUGUGGUCCUGUGGCUAAAAAAACCUUUGUAGAAGGCGCGGGUC [salish99_ex3_r4_030] (Eterna round: R97, puzzle: Exclusion 3)	–	–	–	173	–	149
GCCUCACUUGAGGAUCACCCAAGUCAGGAUAUCUACAAGCCGGCCAUACCGGCUUGCAAGAGAAGGGACUCUAA [Xemamaqu] (Eterna round: R97, puzzle: Exclusion 1)	–	–	–	178	–	38.5
CCAUGUCCGGAGGAUAUGCGCAGACUUACUGCAGCAGAAGGUUGGACUUGAGGAUCACCCAAGUGACCAUUUGU [Esrebionra] (Eterna round: R97, puzzle: Exclusion 6)	–	–	–	445	–	36
ACGAGCAGACGGAGAUCCAACAUGAGGAUCACCCAUGUCUGGAAAGCUUUUUGCUUGUCUUAUCCUCCUCUGUUAGC [Design #10] (Eterna round: R97, puzzle: Sensor, turn-off variant 1)	–	–	–	12.4	–	11.9
UCUGGUCGAGGAUAUACGUGAGGUGCUUCGGCACCAGGUCUACAUGAGGAUCACCCAUGUAGAAGGCGACCAGA [EX2 #61] (Eterna round: R97, puzzle: Exclusion 2)	–	–	–	62.1	–	16.7
AUAUUGUGAGGAUAUGAACUUAGUAUGGAAAGAUACUAAGUUCAGAAGGCACAUGAGGAUCACCCAUGUUUCUC [Long static hairpin v12] (Eterna round: R97, puzzle: Exclusion 4)	–	–	–	34	–	26.9
UGGUAACAUGAGGAUCACCCAUGUCAGGAUAUCAGUAAGAAUAGAUGAGAGUAGAAGAUGAGAAGGGACUAUAU [Excluse me! 7 - Jieux - Exclusion 1] (puzzle: Exclusion 1)	–	29.1	–	–	–	–
UUAAAUCAUGUAGGAUAUGCGUGGCGAAGCUAUGCAGAAGGACAUGAGGAUCACCCAUGUUCUUCGGUCUGCGUACAGAUCGAA [JL ENG1 1.07] (Eterna round: R96, puzzle: Exclusion NG 1)	–	–	–	316	20.6	26.8
